Changes are numbered by the printed parent chain. Names and notes keep the numbering of the source. Values belong to the binder of their own block, whether it stands above or below them.
How the values were obtained:
[1] = target: T1, FcγRIIa type R extracellular domain with C-terminal His tag (human, UniProt P12318 34-217); test: SPR, FcγR bound/antibody captured
T1 chain: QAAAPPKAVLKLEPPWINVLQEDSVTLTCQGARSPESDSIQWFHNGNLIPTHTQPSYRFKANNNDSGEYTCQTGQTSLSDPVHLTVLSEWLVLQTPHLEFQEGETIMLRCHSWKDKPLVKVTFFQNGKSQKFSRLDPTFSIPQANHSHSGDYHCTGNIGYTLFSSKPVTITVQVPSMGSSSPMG
Source text: (§1) IL6R-L (SEQ ID NO: 22) was utilized as a common antibody L chain for all of the antibodies. These variants were expressed, purified, and expressed by the method of Reference Example 1. […] Interactions of each PD variant with FcγRIIa type R and FcγRIIb were comprehensively evaluated by the method of Reference Example 2.
(§2) With regard to the results of analyzing the interaction with the respective FcγRs, a figure was produced according to the following method.

[2] = target: T2, FcγRIIb extracellular domain with C-terminal His tag (human, UniProt P31994 43-217); test: SPR, FcγR bound/antibody captured
T2 construct: extracellular domain; also called FcgRIIb; FcγRIIb extracellular region; not shown: His tag at the C terminus
T2 sequence (looked up): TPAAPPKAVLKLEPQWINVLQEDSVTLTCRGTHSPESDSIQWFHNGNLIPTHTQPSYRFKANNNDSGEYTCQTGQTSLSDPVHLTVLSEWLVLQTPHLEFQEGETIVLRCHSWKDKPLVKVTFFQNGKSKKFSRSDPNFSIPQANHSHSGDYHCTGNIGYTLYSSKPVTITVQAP
Source text: as §1, §2

[3] = target: T3, FcγRIa extracellular domain, C-terminal His tag (human, UniProt P12314 16-292); test: SPR (Biacore), antibody captured, FcγR as analyte
T3 construct: the whole entry is named; also called FcgRIa; CD64A; not shown: His tag at the C terminus
T3 sequence (P12314 16-292): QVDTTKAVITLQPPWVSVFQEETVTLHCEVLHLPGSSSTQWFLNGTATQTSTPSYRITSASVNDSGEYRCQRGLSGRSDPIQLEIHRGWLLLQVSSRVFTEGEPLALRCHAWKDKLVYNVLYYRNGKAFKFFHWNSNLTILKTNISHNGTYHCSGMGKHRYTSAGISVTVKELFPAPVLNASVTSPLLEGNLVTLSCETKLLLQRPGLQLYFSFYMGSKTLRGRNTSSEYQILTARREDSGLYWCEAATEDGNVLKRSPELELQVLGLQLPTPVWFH
Source text: (§3) Furthermore, KD(IIaR)/KD(IIb) and KD(IIaH)/KD(IIb) in the table respectively represent the value obtained by dividing the KD value of each variant for FcγRIIaR by the KD value of each variant for FcγRIIb, and the value obtained by dividing the KD value of each variant for FcγRIIaH by the KD value of each variant for FcγRIIb. KD(IIb) of the parent polypeptide/KD(IIb) of the altered polypeptide refers to the value obtained by dividing the KD value of the parent polypeptide for FcγRIIb by the KD value of each variant for FcγRIIb.
(§4) Kinetic analyses for calculating the KD values of each altered antibody for FcγR were performed according to the following method. First, antibodies of interest were captured onto the above-mentioned sensor chips, and an Fcγ receptor diluted with the running buffer was allowed to interact. The Biacore Evaluation Software was used to globally fit the measured results to the obtained sensorgram using the 1:1 Langmuir binding model, and the association rate constant ka (L/mol/s) and the dissociation rate constant kd (1/s) were calculated; and from those values the dissociation constants KD (mol/L) were calculated.

[4] = target: T4, FcγRIIa type R extracellular domain, C-terminal His tag (human, UniProt P12318 34-217); test: SPR (Biacore), antibody captured, FcγR as analyte
T4 construct: extracellular domain; also called FcgRIIaR; FcγRIIaR; not shown: His tag at the C terminus
T4 sequence (looked up): T1 chain
Source text: as §3, §4

[5] = target: T1, FcγRIIa type R extracellular domain …; test: SPR (Biacore), antibody captured, FcγR analyte
Source text: as §3, with “respectively show” for “respectively represent”, “to a” for “to the”
as §4

[6] = target: T2, FcγRIIb extracellular domain with …; test: SPR (Biacore), antibody captured, FcγR analyte
Source text: as §3, with “respectively show” for “respectively represent”, “to a” for “to the”
as §4

[7] = target: T5, FcγRIIIa type V extracellular domain with C-terminal His tag (human, UniProt P08637 17-208); test: SPR (Biacore), antibody captured, FcγR analyte
T5 construct: extracellular domain; also called FcγRIIIaV; FcgRIIIaV; not shown: His tag at the C terminus
T5 sequence (P08637 17-208 F176V): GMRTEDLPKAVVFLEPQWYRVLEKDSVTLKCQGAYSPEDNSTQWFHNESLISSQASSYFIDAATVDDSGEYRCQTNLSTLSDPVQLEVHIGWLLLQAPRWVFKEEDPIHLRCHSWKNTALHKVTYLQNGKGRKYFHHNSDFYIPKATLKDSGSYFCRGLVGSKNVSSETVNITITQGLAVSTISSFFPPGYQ
Source text: as §3, with “respectively show” for “respectively represent”, “to a” for “to the”
as §4

[8] = target: T6, FcγRIIa type H extracellular domain with C-terminal His tag (human, UniProt P12318 34-217); test: SPR (Biacore), antibody captured, FcγR analyte
T6 construct: extracellular domain; also called FcγRIIa H; FcγRIIaH; not shown: His tag at the C terminus
T6 sequence (looked up): T1 chain with R134H
Source text: as §3, with “respectively show” for “respectively represent”, “to a” for “to the”
as §4

[9] = target: T7, FcγRIa extracellular domain with C-terminal His tag (human, UniProt P12314 16-292); test: SPR (Biacore): antibody captured on the chip, FcγR as analyte; amount bound per amount captured, relative to GpH7-B3/GpL16-k0 without mutation = 100
T7 construct: whole entry named; also called FcgRIa; CD64A; not shown: His tag at the C terminus
T7 sequence (P12314 16-292): as the sequence (P12314 16-292) above
Source text: (§5) B3 variants were expressed and purified using the method of Reference Example 1, and the binding to each FcγR (FcγRIa, FcγRIIa type H, FcγRIIa type R, FcγRIIb, and FcγRIIIa) was comprehensively evaluated using the method of Reference Example 2.
(§6) Figures were produced based on the results of interaction analysis with each FcγR by the method below. […] The value obtained by multiplying this value by 100 was used as an indicator of the relative FcγR-binding activity of each variant.

[10] = target: T2, FcγRIIb extracellular domain with …; test: as above
Source text: as §5, §6

[11] = target: T8, FcγRIIIa extracellular domain with C-terminal His tag (allotype not given) (human, UniProt P08637 17-208); test: SPR (Biacore): antibody captured on the chip, FcγR as analyte; amount bound per amount captured, relative to GpH7-B3/GpL16-k0 without mutation = 100; FcγR concentration not shown
T8 construct: extracellular domain; also called CD16A; not shown: His tag at the C terminus
T8 sequence (P08637 17-208): as the sequence (P08637 17-208 F176V) above, with V160F counted along it
Source text: as §5, §6

[12] = target: T6, FcγRIIa type H extracellular domain …; test: SPR (Biacore): antibody captured on the chip, FcγR as analyte; amount bound per amount captured, relative to GpH7-B3/GpL16-k0 without mutation = 100
Source text: as §5, §6

Kd [3]: 4 nM
Kd [4]: 11 µM
B2: IL6R-BP106/IL6R-L (antibody, human IgG1, kappa)
heavy: QVQLQESGPGLVKPSETLSLTCAVSGHSISHDHAWSWVRQPPGEGLEWIGFISYSGITNYNPSLQGRVTISRDNSKNTLYLQMNSLRAEDTAVYYCARSLARTTAMDYWGEGTLVTVSSASTKGPSVFPLAPSSKSTSGGTAALGCLVKDYFPEPVTVSWNSGALTSGVHTFPAVLQSSGLYSLSSVVTVPSSSLGTQTYICNVNHKPSNTKVDKKVEPKSCDKTHTCPPCPAPELLGGDSVFLFPPKPKDTLMISRTPEVTCVVVDVSDEDPEVKFNWYVDGVEVHNAKTKPREEQYNSTYRVVSVLTVLHQDWLNGKEYKCKVSNKALPAPIEKTISKAKGQPREPQVYTLPPSRDELTKNQVSLTCLVKGFYPSDIAVEWESNGQPENNYKTTPPVLDSDGSFFLYSKLTVDKSRWQQGNVFSCSVMHEALHNHYTQESLSLSP
light: not shown
notes: IgG1; P238D/H268D (EU numbering) introduced into IL6R-B3

Kd [3]: 7 nM
Kd [4]: 9.9 µM
B7: IL6R-BP119/IL6R-L (antibody, human IgG1, kappa)
heavy: B2 heavy with D270H, K328M
light: not shown
notes: IgG1; P238D/K326M (EU numbering) introduced into IL6R-B3

Kd [5]: 32 µM
Kd [6]: 3000 nM
Kd [7]: 37 µM
B8: IL6R-PD079/IL6R-L (antibody, human IgG1, kappa)
heavy: B2 heavy with G239A, M254Y, D270H, N436Y, E441K
light: not shown
notes: IL6R-F11 with P238D/G237A; copies: 2 + 2

The remaining lines, values behind:

B1: IL6R-F652/IL6R-L (antibody, human IgG1, kappa)
heavy: B2 heavy with M254Y, D270H, N436Y, E441K
light: not shown
notes: IL6R-F11 with P238D; copies: 2 + 2
relative FcγRIIaR-binding activity [1]: 100 % of IL6R-F652/IL6R-L
relative FcγRIIb-binding activity [2]: 100 % of IL6R-F652/IL6R-L

B3: IL6R-PD042/IL6R-L (antibody, human IgG1, kappa)
heavy: B2 heavy with L236W, M254Y, D270H, N436Y, E441K
light: not shown
notes: IL6R-F11 with P238D/L234W; copies: 2 + 2
Kd [5]: 16 µM
Kd [6]: 2000 nM
Kd [7]: 37 µM

B4: IL6R-PD087/IL6R-L (antibody, human IgG1, kappa)
heavy: B2 heavy with G239M, M254Y, D270H, N436Y, E441K
light: not shown
notes: IL6R-F11 with P238D/G237M; copies: 2 + 2
Kd [5]: 22 µM
Kd [8]: 20 µM
Kd [7]: 37 µM

B5: IL6R-2B172/IL6R-L (antibody, human IgG1, kappa)
heavy: B2 heavy with D270H, V325M
light: not shown
notes: IgG1; P238D/V323M (EU numbering) introduced into IL6R-B3
Kd [3]: 3 nM
Kd [4]: 6.1 µM

B6: IL6R-PD080/IL6R-L (antibody, human IgG1, kappa)
heavy: B2 heavy with G239D, M254Y, D270H, N436Y, E441K
light: not shown
notes: IL6R-F11 with P238D/G237D; copies: 2 + 2
Kd [5]: 21 µM
Kd [6]: 2000 nM
Kd [7]: 43 µM

B9: B3 variant of GpH7-B3/GpL16-k0 with mutation A (Pro at position 238 (EU numbering) substituted with Asp) (antibody, human IgG1, kappa)
heavy: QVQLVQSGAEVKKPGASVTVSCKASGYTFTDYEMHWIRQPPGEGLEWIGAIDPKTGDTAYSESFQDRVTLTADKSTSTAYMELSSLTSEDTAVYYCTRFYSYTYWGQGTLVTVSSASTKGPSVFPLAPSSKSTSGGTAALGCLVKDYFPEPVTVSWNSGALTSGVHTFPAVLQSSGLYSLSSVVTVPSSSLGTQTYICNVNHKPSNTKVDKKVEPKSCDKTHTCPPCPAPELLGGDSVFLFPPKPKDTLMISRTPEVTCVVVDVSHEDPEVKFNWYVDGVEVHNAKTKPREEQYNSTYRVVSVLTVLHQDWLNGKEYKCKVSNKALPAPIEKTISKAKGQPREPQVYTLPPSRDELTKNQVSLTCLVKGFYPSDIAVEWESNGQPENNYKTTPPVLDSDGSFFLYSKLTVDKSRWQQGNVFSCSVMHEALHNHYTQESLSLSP
light: DIVMTQSPLSLPVTPGEPASISCQASESLVHSNRNTYLHWYLQKPGQSPQLLIYKVSNRFSGVPDRFSGSGSGTDFTLKISRVEAEDVGVYYCSQNTHVPPTFGQGTKVEIERTVAAPSVFIFPPSDEQLKSGTASVVCLLNNFYPREAKVQWKVDNALQSGNSQESVTEQDSKDSTYSLSSTLTLSKADYEKHKVYACEVTHQGLSSPVTKSFNRGEC
notes: copies: 2 + 2
binding result [9]: binds
binding result [10]: binds
binding result [11]: no binding

B10: B3 variant of GpH7-B3/GpL16-k0 with mutation B (Leu at position 328 (EU numbering) substituted with Glu) (antibody, human IgG1, kappa)
heavy: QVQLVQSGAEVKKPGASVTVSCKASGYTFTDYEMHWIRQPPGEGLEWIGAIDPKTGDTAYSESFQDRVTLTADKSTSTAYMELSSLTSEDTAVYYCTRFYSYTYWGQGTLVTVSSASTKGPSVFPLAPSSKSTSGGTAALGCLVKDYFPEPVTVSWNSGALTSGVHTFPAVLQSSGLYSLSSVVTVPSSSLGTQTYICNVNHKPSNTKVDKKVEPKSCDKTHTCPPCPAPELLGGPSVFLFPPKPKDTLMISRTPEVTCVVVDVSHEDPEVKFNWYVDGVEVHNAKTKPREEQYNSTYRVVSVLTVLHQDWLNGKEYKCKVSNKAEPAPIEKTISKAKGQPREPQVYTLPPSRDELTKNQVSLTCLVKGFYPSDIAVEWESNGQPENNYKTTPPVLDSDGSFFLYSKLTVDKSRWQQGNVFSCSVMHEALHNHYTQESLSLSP
light: B9 light
notes: copies: 2 + 2
binding result [9]: binds
binding result [10]: binds
binding result [12]: binds

Source: patent US20140093496A1 (Chugai, published 2014)
